Results on eight molecules are retold here after patent US20230374132A1 (Innovent, published 2023).

The Kd is the equilibrium constant for the complex coming apart. By koff is commonly meant the first-order rate constant of dissociation. As usually defined, the kon is the second-order rate constant of association. For orientation: EC50 (read off the curve) means the concentration giving half of the maximal effect. The term EC50 denotes the concentration that produces a half-maximal response.

For experiment [1], the target named is T1, human CD3E&G complex (Sino Biological Inc., CT041-H0305H) (human, UniProt P07766 23-126; P09693 23-116).
T1 construct: bought heterodimer; also called human CD3E&G antigen
T1 sequence (P07766 23-126, chain 1 of 2): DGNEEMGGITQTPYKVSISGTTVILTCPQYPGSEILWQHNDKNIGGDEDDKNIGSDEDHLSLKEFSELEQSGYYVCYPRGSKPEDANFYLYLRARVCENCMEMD
T1 sequence (P09693 23-116, chain 2 of 2): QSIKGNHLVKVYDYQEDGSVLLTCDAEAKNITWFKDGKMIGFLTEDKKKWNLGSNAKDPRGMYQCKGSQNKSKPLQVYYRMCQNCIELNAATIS
The experiment is described as follows: BLI, antibody on sensor. On the technique in general: In BLI a coated tip is dipped into the sample, and binding shifts an interference pattern.

Experiment [2] addresses T2, human CD3 E&D complex protein (Sino Biological Inc., CT026H0323H) (human, UniProt P07766 23-126; P04234 22-105).
T2 construct: bought heterodimer; also called human CD3 protein (CT026H0323H)
The experiment is described as follows: BLI, antibody on sensor.

Experiment [3] addresses T3, human CD3 complex on Jurkat cells (human, UniProt P07766 23-207; P04234 22-171; P09693 23-182).
T3 construct: whole, on cells; natural CD3 complex of Jurkat T cells (also used here for CD3 on T cells of human PBMC); also called human CD3 at the cell level; CD3 on T cells
Briefly: flow cytometry on Jurkat cells (human CD3 complex), method of Example 3.2. How it is done: (§1) Jurkat cells are immortalized human T lymphocytes, which express human CD3 complex. The cell line is used to detect the binding of the antibody to the cell. The detailed operation was as follows: Jurkat cells (Promega, J1621) was inoculated into U-shaped 96-well plate, 2×10⁵ for each well. The antibodies to be detected at a series of concentration gradients (the initial concentration of antibody molecule is 500 nM, 3 folds serial dilution) was added into the corresponding cell well, incubated at 4° C. for 30 minutes, and then PBS was used to wash out the unbound part. The sheep anti-human Fc PE fluorescent second antibody (Southern Biotech, J2815-5H87B) was added, then incubated at 4° C. for 15 minutes. and detected by flow cytometry ([…] BD). […] Some of these antibodies were selected to make a further binding curve at cell level.
In general terms: A flow cytometer gives signals particle by particle.

For experiment [4], the target named is T3, human CD3 complex on Jurkat cells. Briefly: flow cytometry on Jurkat cells (human CD3 complex), 'Jurkat cell line binding', method of Example 3.2. How it is done: as §1
The target of experiment [5] is T4, human CLDN18.2 on tumor cells (NUGC-4; DAN-G-hCLDN18.2) (human, UniProt P56856-2 1-261).
T4 sequence (looked up): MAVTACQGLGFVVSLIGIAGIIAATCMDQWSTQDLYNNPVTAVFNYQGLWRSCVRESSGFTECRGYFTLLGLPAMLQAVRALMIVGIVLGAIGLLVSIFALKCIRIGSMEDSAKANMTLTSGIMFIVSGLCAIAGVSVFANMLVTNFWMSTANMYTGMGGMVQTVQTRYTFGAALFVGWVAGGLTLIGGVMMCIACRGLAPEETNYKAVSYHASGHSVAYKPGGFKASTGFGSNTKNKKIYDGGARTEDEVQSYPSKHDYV
Briefly: cell-based or functional assay.

For experiment [6], the target named is T5, human Claudin 18.2 (GenScrip, P50251802) (human, UniProt P56856-2 1-261, limits assumed).
T5 construct: bought antigen coupled to the chip; also called human CLDN18.2; CLDN18.2
T5 sequence (looked up): T4 sequence (looked up)
Briefly: SPR, antigen on chip. On the procedure:
The equilibrium dissociation constant (KD) of binding to human CLDN18.2 was determined by surface plasma resonance (SPR). […] After coupling, 1 M ethanolamine was injected to block the remaining activation sites. According to the manufacturer's instructions, the binding and dissociation between the chip surface antigen and various bispecific antibodies in the mobile phase were detected by Biacore (GE Healthcare, T200) to obtain the affinity and kinetic constants. The antibody after serial dilution (0-100 nM, twice dilution) flowed through the chip surface in order from low concentration to high concentration, with binding time of 180 s and dissociation time of 600 s. Finally, 10 mM Glycine pH 1.5 (GE Healthcare, BR-1003-54) was used to regenerate the chip. The resulting data were analyzed using the Biacore T200 analysis software and the 1:1 combination model.
On the technique in general: SPR reads the build-up and loss of mass on a sensor chip optically.

Experiment [7] concerns the target T2, human CD3 E&D complex protein (Sino …). Briefly: BLI, antibody on sensor. How it is done:
The equilibrium dissociation constant (KD) of the bispecific antibody of the invention binding to human CD3 protein was determined by the Biolayer Interferometry (BLI). The affinity determination of BLI method was carried out according to the existing methods (Estep, P et al., High throughput solution based measurement of antibody-antigen affinity and affinity binding. MAbs, 2013.5 (2): 270-8).
An appropriate number of AHC (18-5060, Fortebio) sensors was taken and soaked in SD buffer (1×PBS, BSA 0.1%, Tween-20 0.05%) according to the number of samples at half an hour before the experiment. 100 μl of SD buffer, each bispecific antibody and human CD3 protein (CT026H0323H, Sino Biological Inc.) were added into 96-well black polystyrene semi-quantitative micro-well plate (Greiner, 675076). Fortebio Octet Red96 was used for detection, and the sensor position was selected according to the sample position. The setting parameters of the instrument were as follows: operation steps: Baseline, Loading-1 nm, Baseline, Association and Dissociation; the operation time of each step depended on the speed of sample combination and dissociation. The rotational speed was 1000 rpm and the temperature was 30° C. ForteBio Octet analysis software was used to analyze KD value.
The source holds these as a separate data set.

For experiment [8], the target named is T3, human CD3 complex on Jurkat cells. Briefly: flow cytometry on Jurkat cells (human CD3 complex), 'Jurkat cell line binding', Example 3.2 [cont) D]. On the procedure:
as §1

Experiment [9] deals with T6, cynomolgus monkey CD3 E&D complex protein (Sino Biological Inc., CT032-00323H) (cynomolgus monkey, UniProt Q95LI5 22-117; Q95LI8 22-105).
T6 construct: bought heterodimer
T6 sequence (Q95LI5 22-117, chain 1 of 2): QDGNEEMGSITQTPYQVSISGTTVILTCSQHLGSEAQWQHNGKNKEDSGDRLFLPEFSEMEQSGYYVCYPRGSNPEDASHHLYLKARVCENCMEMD
T6 sequence (Q95LI8 22-105, chain 2 of 2): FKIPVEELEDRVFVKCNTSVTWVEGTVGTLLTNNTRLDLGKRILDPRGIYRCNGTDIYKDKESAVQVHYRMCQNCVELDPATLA
Briefly: BLI, antibody on sensor.

Experiment [10] addresses T2, human CD3 E&D complex protein (Sino …). The experiment is described as follows: BLI, antibody on sensor. The source holds these as a separate data set.

Substitutions are numbered along the chain they refer to. In names and notes the source's numbering stands. Read-outs that look alike come from different tables or passages of the source.

T2 sequence (P07766 23-126, chain 1 of 2): as the sequence (P07766 23-126, chain 1 of 2) above
T2 sequence (P04234 22-105, chain 2 of 2): as the sequence (Q95LI8 22-105, chain 2 of 2) above, with V5I, K15N, V20I, T32S, N33D, N34I, A64T, N74S, L83V counted along it
T3 sequence (P07766 23-207, chain 1 of 3): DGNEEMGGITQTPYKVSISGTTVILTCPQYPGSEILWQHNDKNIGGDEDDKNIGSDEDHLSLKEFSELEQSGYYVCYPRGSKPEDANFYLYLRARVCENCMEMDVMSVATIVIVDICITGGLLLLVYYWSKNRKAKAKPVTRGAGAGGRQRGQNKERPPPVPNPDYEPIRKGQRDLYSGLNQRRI
T3 sequence (P04234 22-171, chain 2 of 3): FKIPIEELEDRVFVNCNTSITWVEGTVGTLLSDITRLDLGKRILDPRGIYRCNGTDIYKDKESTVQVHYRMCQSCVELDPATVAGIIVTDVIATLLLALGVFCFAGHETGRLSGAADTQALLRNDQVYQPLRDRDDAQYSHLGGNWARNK
T3 sequence (P09693 23-182, chain 3 of 3): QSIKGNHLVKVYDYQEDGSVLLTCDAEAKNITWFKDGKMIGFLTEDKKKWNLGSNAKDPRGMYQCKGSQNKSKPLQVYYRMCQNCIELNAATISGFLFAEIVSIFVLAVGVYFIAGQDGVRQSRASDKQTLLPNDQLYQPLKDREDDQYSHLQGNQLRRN

B1: hzsp34.95 (antibody, human IgG1, lambda, L234A L235A, V domains shown)
VH: EVQLVESGGGLVQPGGSLKLSCAASGFTFSGSAMNWVRQASGKGLEWVGRIRSKYNNYATYYADSVKDRFTISRDDSKSTLYLQMNSLKTEDTAVYYCARHGNFGQSYVSWFAYWGQGTTVTVSS
VL: QAVVTQEPSLTVSPGGTVTLTCRSSTGAVTTSNYANWVQQKPGQAPRGLIGGTNKRAPGVPARFSGSLLGDKAALTLLGAQPEDEAEYYCALWYSNLWVFGQGTKLTVLG
notes: CDR mutant of hzsp34.24; IgG1 L234A L235A, lambda
Take B1: the binding result is recorded as “no binding” in experiment [1], “no binding” in [2] and “no binding (tested: 900 (no unit printed on the sheet))” in experiment [3].

B2: hzsp34.97 (antibody, human IgG1, lambda, L234A L235A, V domains shown)
VH: B1 VH with S30N, G31T, S32Y, Y55A, N56G, N57G
VL: B1 VL
notes: as for B1
In experiment [1], B2 registered a Kd of 11 nM, a koff of 0.00148 s⁻¹ and a kon of 135000 M⁻¹ s⁻¹. In experiment [2], binding was characterised by a dissociation constant (Kd) of 5.62 nM, the koff was 0.00156 s⁻¹ and the kon amounted to 278000 M⁻¹ s⁻¹. For the same molecule, the “EC50 (read off the curve)” value in experiment [4] was ~2 nM.

B3: hzsp34.116 (antibody, human IgG1, lambda, L234A L235A, V domains shown)
VH: B1 VH with S30N, G31T, S32Y
VL: B1 VL with K55S, N96D
notes: as for B1
In [1], B3 showed a dissociation constant Kd of 16 nM, a koff of 0.00286 s⁻¹ and a kon of 179000 M⁻¹ s⁻¹. In experiment [2], this molecule returned a Kd of 4.11 nM, a koff of 0.000914 s⁻¹ and a kon of 223000 M⁻¹ s⁻¹. In [4], the “EC50 (read off the curve)” value was ~4 nM.

B4: hzsp34.96 (antibody, human IgG1, lambda, L234A L235A, V domains shown)
VH: B1 VH with S30N, G31T, S32Y, R52S, S53L
VL: B1 VL
notes: as for B1
B4: the results for the binding result in experiment [1], in [2] and in experiment [3] were “no binding”, “no binding” and “no binding (tested: 900 (no unit printed on the sheet))”, respectively.

B5: 030 (bispecific antibody, human IgG1, kappa, lambda, L234A L235A)
heavy 1: not shown
light 1: not shown
heavy 2: not shown
light 2: QAVVTQEPSLTVSPGGTVTLTCRSSTGAVTTSNYANWVQQKPGQAPRGLIGGTNKRAPGVPARFSGSLLGDKAALTLLGAQPEDEAEYYCALWYSNLWVFGQGTKLTVLGQPKAAPSVTLFPPSSEELQANKATLVCLISDFYPGAVTVAWKADSSPVKAGVETTTPSKQSNNKYAASSYLSLTPEQWKSHRSYSCQVTHEGSTVEKTVAPTECS
notes: 1+1, IgG1 LALA knob-into-hole; also called CLDN18.2xCD3 bispecific antibody 030; HB37A6 x HzSP34.24
With B5, in [5], the “EC50 of killing of DAN-G-hCLDN18.2 cells by PBMC” value was < 0.1 pM and the “EC50 of killing of NUGC-4 cells by PBMC” value is < 0.001 nM. Also, in experiment [6], the Kd was found to be 0.576 nM, the koff stood at 0.0002 s⁻¹ and the kon amounted to 347000 M⁻¹ s⁻¹. In addition, in [7], the dissociation constant Kd stood at 7.46 nM, the koff was found to be 0.00516 s⁻¹ and the on-rate constant (kon) was found to be 693000 M⁻¹ s⁻¹.

B6: 033 (bispecific antibody, human IgG1, kappa, lambda, L234A L235A)
heavy 1: not shown
light 1: not shown
heavy 2: not shown
light 2: B5 light 2
notes: 1+1, IgG1 LALA knob-into-hole; also called CLDN18.2xCD3 bispecific antibody 033; HB37A6 x HzSP34.97
For B6, the Kd in experiment [6] was found to be 0.57 nM. Besides, in experiment [7], the dissociation constant (Kd) was found to be 446 nM, the koff was determined as 0.169 s⁻¹ and the association rate constant (kon) was 379000 M⁻¹ s⁻¹.

B7: 032 (bispecific antibody, human IgG1, kappa, lambda, L234A L235A)
heavy 1: not shown
light 1: not shown
heavy 2: not shown
light 2: B5 light 2
notes: 1+1, IgG1 LALA knob-into-hole; also called CLDN18.2xCD3 bispecific antibody 032; HB37A6 x HzSP34.87
Consider B7, for which, in [5], the “EC50 of killing of DAN-G-hCLDN18.2 cells by PBMC” value was < 0.1 pM and the “EC50 of killing of NUGC-4 cells by PBMC” value is < 0.001 nM. Also, the Kd in experiment [6] stood at 0.57 nM. Besides, in experiment [7], the Kd amounted to 89.1 nM, the dissociation rate constant (koff) is 0.0718 s⁻¹ and the on-rate (kon) was 807000 M⁻¹ s⁻¹.

B8: sp34 (antibody, human IgG1, lambda, L234A L235A, V domains shown)
VH: EVQLVESGGGLVQPKGSLKLSCAASGFTFNTYAMNWVRQAPGKGLEWVARIRSKYNNYATYYADSVKDRFTISRDDSQSILYLQMNNLKTEDTAMYYCVRHGNFGNSYVSWFAYWGQGTLVTVSS
VL: QAVVTQESALTTSPGETVTLTCRSSTGAVTTSNYANWVQEKPDHLFTGLIGGTNKRAPGVPARFSGSLIGDKAALTITGAQTEDEAIYFCALWYSNLWVFGGGTKLTVLG
notes: mouse variable regions on human IgG1 L234A L235A and lambda constant regions; also called chimeric antibody sp34; mouse sp34
For the molecule B8, the dissociation constant (Kd) in experiment [1] was 6.22 nM; in experiment [2] it was 0.638 nM; in experiment [9], 0.646 nM; in [10], 0.932 nM. Further, the koff in experiment [1] worked out at 0.00149 s⁻¹; in experiment [2], 0.000157 s⁻¹; in [9], 0.000795 s⁻¹; in [10], 0.0019 s⁻¹. The association rate constant (kon) in experiment [1] stood at 240000 M⁻¹ s⁻¹; in experiment [2], 246000 M⁻¹ s⁻¹; in experiment [9], 1.23e+06 M⁻¹ s⁻¹; in experiment [10], 2.04e+06 M⁻¹ s⁻¹. Further, in experiment [4], the half-maximal effective concentration (EC50 (read off the curve)) is ~0.5 nM. The concentration for a half-maximal effect (EC50) in experiment [8] is 2 nM.
